Experimental data published in article PMC10244618.
Values joined by “and” are separate entries in the source; they are usually repeats but may differ in a detail not shown here. Equal entries are not always repeated.

B1: NF2 (merlin) isoform 7, human, full length (507 aa, lacks exons 2-3 = isoform-1 residues 39-121; exon-16 C-terminus), P35240-4 (parent)
chain: MAGAIASRMSFSSLKRKQPKTFTVRIVTMDAEMEFNCEVKKQILDEKIYCPPEASVLLASYAVQAKYGDYDPSVHKRGFLAQEELLPKRVINLYQMTPEMWEERITAWYAEHRGRARDEAEMEYLKIAQDLEMYGVNYFAIRNKKGTELLLGVDALGLHIYDPENRLTPKISFPWNEIRNISYSDKEFTIKPLDKKIDVFKFNSSKLRVNKLILQLCIGNHDLFMRRRKADSLEVQQMKAQAREEKARKQMERQRLAREKQMREEAERTRDELERRLLQMKEEATMANEALMRSEETADLLAEKAQITEEEAKLLAQKAAEAEQEMQRIKATAIRTEEEKRLMEQKVLEAEVLALKMAEESERRAKEADQLKQDLQEAREAERRAKQKLLEIATKPTYPPMNPIPAPLPPDIPSFNLIGDSLSFDFKDTDMKRLSMEIEKEKVEYMEKSKHLQEQLNELKTEIEALKLKERETALDILHNENSDRGGSSKHNTIKKPQAQGRRPICI

Variants of: B1
Assay: reverse yeast two-hybrid deep mutational scan (rY2H-seq): NF2 isoform 7 mutant library as bait mated with wild-type prey strains; selection on medium lacking adenine for non-interacting pairs; NextSeq paired-end sequencing; enrichment vs …
Conditions: with EMILIN1 (elastin microfibril interfacer 1), Q9Y6C2; yeast diploids after mating (RBait_S3 x RPrey_S3), 30 °C, selection for reporter genes on NB agar; human tyrosine kinase ABL2 co-expressed as the active kinase …; HIGHER = WEAKER BINDING (the opposite of display enrichments): higher = stronger loss of interaction: reverse Y2H selects yeast in which bait and prey do NOT interact (growth without adenine), so a …; hits-only table; scale: rY2H score; numbering: uniprot, sequence starts at 1
E377A showed an enrichment of 4.03. In the case of T189I, the enrichment is reported as 1.59. For P399R, the enrichment was 2.33. E444A was tested, and the enrichment was 10.3 and 7.31. Q261Y gave an enrichment of 2.07. Work on E323A yielded an enrichment of 1.45. For K340L, the enrichment was 1.95 and 2.03. Variant N402L has an enrichment of 1.47. For N480A, the enrichment was 1.73. L375A showed an enrichment of 4.49. D198N was tested, and the enrichment was 1.92. E111A gave an enrichment of 4.1. E337A showed an enrichment of 1.89. With A378T the enrichment was 2.24. In the case of K330A, the enrichment is reported as 2.6. Work on F173S yielded an enrichment of 1.69. For P405L, the enrichment was 5.05. I404K showed an enrichment of 1.59. For D428K, the enrichment was 4.1. T332A was tested, and the enrichment was 4.79. With D369K the enrichment was 2.69 and 1.81. With R248K the enrichment was 1.55. Work on H75E yielded an enrichment of 6.72. G157E was tested, and the enrichment was 5.67 and 3.65. For A381M, the enrichment was 5.46. In the case of A287T, the enrichment is reported as 1.8. With K304W the enrichment was 13.1 and 10.8. For I141L, the enrichment was 7.65. With R270K the enrichment was 5.67. For V39G, the enrichment was 1.41. Work on P174R yielded an enrichment of 4.14. Variant K318A has an enrichment of 5.52. For T269E, the enrichment was 4.01. In the case of S13F, the enrichment is reported as 1.87. A247K gave an enrichment of 4.58. S488R gave an enrichment of 1.65. With E282L the enrichment was 3.15. K469A was tested, and the enrichment was 5.72. Work on Q376K yielded an enrichment of 2.11. In the case of T429K, the enrichment is reported as 5.25. Variant E123D has an enrichment of 1.52. In the case of R263E, the enrichment is reported as 2.7. Variant R77W has an enrichment of 1.39. L478A gave an enrichment of 1.45. Work on A331K yielded an enrichment of 4.31.

Same assay, conditions: with KDM1A (lysine-specific histone demethylase 1A; the table's label AOF2 is a gene synonym of KDM1A), O60341; yeast diploids after mating (RBait_S3 x RPrey_S3), 30 °C, selection for reporter genes on NB agar; human ABL2 co-expressed as the kinase-dead K35M mutant …; HIGHER = WEAKER BINDING (the opposite of display enrichments): higher = stronger loss of interaction: reverse Y2H selects yeast in which bait and prey do NOT interact (growth without adenine), so a …; hits-only table; scale: rY2H score; numbering: uniprot, sequence starts at 1
For E323A, the enrichment was 1.84 and 3.01. Work on K340L yielded an enrichment of 3.29. For N402L, the enrichment was 1.53. A378T showed an enrichment of 1.71. In the case of K330A, the enrichment is reported as 1.85. F173S gave an enrichment of 3.95. With D428K the enrichment was 2.24. T332A was tested, and the enrichment was 1.86 and 5.52. For D369K, the enrichment was 2.15. H75E was tested, and the enrichment was 2.15. For K304W, the enrichment was 17. With K318A the enrichment was 3.56. Work on S488R yielded an enrichment of 1.65. With E123D the enrichment was 1.75. A331K showed an enrichment of 2.19. In the case of R166G, the enrichment is reported as 1.77. Work on G486D yielded an enrichment of 1.52. For D476E, the enrichment was 2.39. K356L gave an enrichment of 3.88. In the case of A358L, the enrichment is reported as 7.18. Variant D271K has an enrichment of 5.07. Variant S414L has an enrichment of 3.17. N457T showed an enrichment of 2.31. Work on S12L yielded an enrichment of 5.88. L389K showed an enrichment of 2.15. In the case of E311L, the enrichment is reported as 2.66. Work on D411C yielded an enrichment of 2.42. M122A showed an enrichment of 3.3. In the case of R25E, the enrichment is reported as 3.64 and 8.74. P192S gave an enrichment of 1.69. Y67A showed an enrichment of 3.02. In the case of V352S, the enrichment is reported as 3.21. Work on L167E yielded an enrichment of 2.5. L353A was tested, and the enrichment was 2.32. D71K showed an enrichment of 5.71. H75S gave an enrichment of 2.92. With P504R the enrichment was 2. For L408K, the enrichment was 1.88. With E309L the enrichment was 1.9. With G501C the enrichment was 1.59. With M357D the enrichment was 7.23. With A393L the enrichment was 1.9. For P405S, the enrichment was 6.05. In the case of H159E, the enrichment is reported as 3.49. Variant L389S has an enrichment of 1.45. A312L was tested, and the enrichment was 3.21. With N457S the enrichment was 3.38. Q64L was tested, and the enrichment was 2.29. For K460L, the enrichment was 4.85. E344V showed an enrichment of 1.58. L417E showed an enrichment of 2.45. With R328P the enrichment was 1.53. Variant A247E has an enrichment of 7.37. In the case of R471A, the enrichment is reported as 3.18. K191Y gave an enrichment of 1.65. For E123L, the enrichment was 1.42. Q498L showed an enrichment of 1.65. I171D gave an enrichment of 5.35. Work on I160C yielded an enrichment of 1.87. Variant R363G has an enrichment of 1.89. Work on R227E yielded an enrichment of 14.7. For L167A, the enrichment was 1.67. In the case of R166E, the enrichment is reported as 1.81. For I392E, the enrichment was 3.78. With G78K the enrichment was 1.76. With T168P the enrichment was 1.77. Work on H112A yielded an enrichment of 2.37. For R228G, the enrichment was 8.73. For A302T, the enrichment was 1.57. With E351K the enrichment was 1.66 and 2.35. F173V was tested, and the enrichment was 2.3. With S361P the enrichment was 2. N482L was tested, and the enrichment was 2.71. Work on Q500L yielded an enrichment of 19.6. In the case of H159P, the enrichment is reported as 1.84. Variant R248C has an enrichment of 1.52. K15L gave an enrichment of 1.66. With E472A the enrichment was 3.64. With Q250D the enrichment was 1.46. For S423E, the enrichment was 9.11. In the case of A385E, the enrichment is reported as 2.26 and 2.39. Work on N492E yielded an enrichment of 1.69. Q250L showed an enrichment of 2.08. Work on Q345K yielded an enrichment of 2.79. Work on C506S yielded an enrichment of 1.49. In the case of T168D, the enrichment is reported as 2.37. For S414E, the enrichment was 1.73. A365L gave an enrichment of 2.1. L158I was tested, and the enrichment was 2.37.

Same assay, conditions: with NF2 C-terminal domain (wild type; homomeric NF2-NF2 interaction), P35240; yeast diploids after mating (RBait_S3 x RPrey_S3), 30 °C, selection for reporter genes on NB agar; human ABL2 co-expressed as the kinase-dead K35M mutant …; HIGHER = WEAKER BINDING (the opposite of display enrichments): higher = stronger loss of interaction: reverse Y2H selects yeast in which bait and prey do NOT interact (growth without adenine), so a …; hits-only table; partner unresolved; scale: rY2H score; numbering: uniprot, sequence starts at 1
In the case of E323A, the enrichment is reported as 1.8. P405L gave an enrichment of 7.16. Work on T332A yielded an enrichment of 2.4. D369K was tested, and the enrichment was 2.61. H75E gave an enrichment of 2.7. With P174R the enrichment was 4.82. With T269E the enrichment was 3.61. With S488R the enrichment was 1.58. For K469A, the enrichment was 2.32 and 4.81. For R263E, the enrichment was 3.74. In the case of L389K, the enrichment is reported as 4.56 and 2.51. M122A was tested, and the enrichment was 2.37. In the case of L167E, the enrichment is reported as 4.14 and 3.2. H75S showed an enrichment of 2.58. M357D was tested, and the enrichment was 2.94. With A247E the enrichment was 6.62. Variant K191Y has an enrichment of 1.46. E351K was tested, and the enrichment was 2.95 and 2.99. A385E showed an enrichment of 2.06. A365L gave an enrichment of 2.32.

Same assay, conditions: with PIK3R3 (phosphatidylinositol 3-kinase regulatory subunit gamma), Q92569; yeast diploids after mating (RBait_S3 x RPrey_S3), 30 °C, selection for reporter genes on NB agar; human tyrosine kinase ABL2 co-expressed as the active kinase …; HIGHER = WEAKER BINDING (the opposite of display enrichments): higher = stronger loss of interaction: reverse Y2H selects yeast in which bait and prey do NOT interact (growth without adenine), so a …; hits-only table; scale: rY2H score; numbering: uniprot, sequence starts at 1
Work on K340L yielded an enrichment of 1.55. With F173S the enrichment was 4.73 and 5.14. D369K was tested, and the enrichment was 4.98. H75E was tested, and the enrichment was 11.9 and 8.5. In the case of G157E, the enrichment is reported as 5.03 and 2.8. With A381M the enrichment was 8.42. In the case of R270K, the enrichment is reported as 4.09. K318A was tested, and the enrichment was 5.56. R166G gave an enrichment of 1.44. Variant K356L has an enrichment of 7.08. A358L gave an enrichment of 4.62. Variant S414L has an enrichment of 3.79. For L389K, the enrichment was 2.43. For G501C, the enrichment was 1.45. H159E was tested, and the enrichment was 6.11. Q64L was tested, and the enrichment was 6.71. Work on K460L yielded an enrichment of 10.6. L417E gave an enrichment of 2.19. In the case of I171D, the enrichment is reported as 3.5 and 7.01. Variant I160C has an enrichment of 1.68. In the case of R227E, the enrichment is reported as 36.3. Work on R166E yielded an enrichment of 1.52. R228G was tested, and the enrichment was 15.3. Work on A302T yielded an enrichment of 3.87. S361P showed an enrichment of 3.03. Work on A385E yielded an enrichment of 4.1. L158I was tested, and the enrichment was 1.48 and 2.46.

Same assay, conditions: with KDM1A (lysine-specific histone demethylase 1A; the table's label AOF2 is a gene synonym of KDM1A), O60341; yeast diploids after mating (RBait_S3 x RPrey_S3), 30 °C, selection for reporter genes on NB agar; human tyrosine kinase ABL2 co-expressed as the active kinase …; HIGHER = WEAKER BINDING (the opposite of display enrichments): higher = stronger loss of interaction: reverse Y2H selects yeast in which bait and prey do NOT interact (growth without adenine), so a …; hits-only table; scale: rY2H score; numbering: uniprot, sequence starts at 1
For L375A, the enrichment was 3.07. With E111A the enrichment was 1.51. K330A was tested, and the enrichment was 4.79. T332A showed an enrichment of 2.16. Variant K318A has an enrichment of 3.09. Work on K469A yielded an enrichment of 3. For T429K, the enrichment was 11.2. Work on A331K yielded an enrichment of 4.83. R166G gave an enrichment of 1.84. A358L showed an enrichment of 6.77. With E311L the enrichment was 5.65. Variant H75S has an enrichment of 3.22. Work on P504R yielded an enrichment of 1.85. E309L was tested, and the enrichment was 1.51. H159E showed an enrichment of 1.44. For L417E, the enrichment was 3.12. G78K showed an enrichment of 5.27. With H159P the enrichment was 3.93 and 3.02. Q250D was tested, and the enrichment was 1.65. In the case of A385E, the enrichment is reported as 2.59 and 2.4. Variant Q345K has an enrichment of 1.61.
